Source: the supplement of paper PMC10724198
Several values for one entry are separate records, joined by “and”; a condition that tells them apart may be missing. Identical values can stand only once. ± gives the standard deviation of the averaged measurements.

Key:
Saccharomyces cerevisiae [1] = assay: protein stability index of tFT-peptide fusion in wild type (PSI (0-1 scale)); higher = more stable (slower turnover); details: genetic background: wild type
Saccharomyces cerevisiae [2] = assay: protein stability index of tFT-peptide fusion in deletion strain of DOA10 (PSI (0-1 scale)); higher = more stable (slower turnover)
Protocol: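 MPS profiling in S. cerevisiae of two library types built from selected 12-aa C-degron peptides (IN1, IN2, LN1, LN3, VN2, R1-R5, W1-W3, Atg1 and Rpa12 C-termini): saturation mutagenesis libraries and C-terminal +1 capping libraries (13 aa). Each peptide is fused to the C-terminus of a sfGFP-mCherry timer, after a GGGS linker. Cells are FACS-sorted into 8 mCherry/sfGFP bins and sequenced. PSI runs from 0 (unstable) to 1 (stable), measured once in wild type and in the das1Δ or doa10Δ background.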

Saccharomyces cerevisiae [3] = assay: protein stability index of tFT-peptide fusion in deletion strain of DAS1 (PSI (0-1 scale)); higher = more stable (slower turnover)
Saccharomyces cerevisiae [4] = assay: protein stability index of tFT-peptide fusion (C-terminal peptide) (PSI (0-1 scale)); higher = more stable (slower turnover); details: genetic background: wild type; temperature: 30 C
Saccharomyces cerevisiae [5] = assay: as above
Protocol: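 MPS profiling in S. cerevisiae of the tFT-X12 degron library: putative degron peptides plus stable controls, 12 aa, fused to the C-terminus of a sfGFP-mCherry timer. Cells are FACS-sorted into 8 mCherry/sfGFP bins and deep-sequenced. PSI runs from 0 (unstable) to 1 (stable). Backgrounds are wild type, das1Δ and doa10Δ at 30 °C, and wild type, das1Δ, cdc34-1 and cdc53-1 at 37 °C; 2-3 technical replicates each.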

[6] = genetic background: cdc34-1, temperature: 37 C
[7] = genetic background: cdc53-1, temperature: 37 C
[8] = genetic background: das1 deletion, temperature: 30 C
[9] = genetic background: das1 deletion, temperature: 37 C
[10] = genetic background: doa10 deletion, temperature: 30 C
[11] = genetic background: wild type, temperature: 30 C
[12] = genetic background: wild type, temperature: 37 C
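Wherever protein stability index of tFT-peptide fusion (C-terminal peptide) is given: PSI is a weighted mean of sequencing reads over stability bins, variants kept only with over 10 reads, mCherry proximal and sfGFP distal, peptide attached via GGGS linker.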
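Wherever protein stability index of tFT-peptide fusion in deletion strain of DAS1 is given: PSI is a weighted mean of each variant's read distribution over the sorted stability bins, computed only for variants having over 10 reads in total.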
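Wherever protein stability index of tFT-peptide fusion in deletion strain of DOA10 is given: PSI per variant is the weighted mean of its sequencing read distribution over the sorted stability bins, counting only variants with over 10 reads summed across bins.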
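Wherever protein stability index of tFT-peptide fusion in wild type is given: PSI derived as read-weighted mean over the 8 sorting bins, only variants exceeding 10 total reads kept, mCherry placed adjacent to the peptide and sfGFP distal.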

Row | Sequence | protein stability index (Saccharomyces cerevisiae [1]) | protein stability index (Saccharomyces cerevisiae [2]) | other results
1 | ISLRVLLPLYFR | 0.286 | 0.588 | 
2 | AITLPMYPLLLR | 0.161 | 0.651 | 
3 | CLVSLPICLFFR | 0.0838 | 0.593 | 
4 | RPLRVLLPLYFR | 0.355 | 0.666 | 
5 | GLYMCSVGKWFR | 0.637 | 0.674 | 
6 | AITLPMCPGLLR | 0.635 | 0.673 | 
7 | QITLPMCPLLLR | 0.288 | 0.645 | 
8 | RSLRVLLPLYSR | 0.609 | 0.642 | 
9 | GLYMCSVGCWFL | 0.506 | 0.598 | 
10 | CLVLLPILLFFR | 0.0939 | 0.442 | 
11 | GRYMCSVGCWFR | 0.385 | 0.669 | 
12 | RSLRVLLPLYFRE | 0.356 | 0.703 | 
13 | GLYMVSVGCWFR | 0.176 | 0.38 | 
14 | CLVSLPIILFFR | 0.0727 | 0.575 | 
15 | GLYMCSTGCWFR | 0.37 | 0.684 | 
16 | AITLPECPLLLR | 0.467 | 0.677 | 
17 | AITLPMCPLLLF | 0.462 | 0.512 | 
18 | CLVSLPILLFFY | 0.232 | 0.435 | 
19 | LVVYLSCVACIN | 0.0193 and 0.0155 |  | protein stability index (Saccharomyces cerevisiae [3]): 0.032 and 0.0307; protein stability index (Saccharomyces cerevisiae [4]): 0.0328 ± 0.013; protein stability index (Saccharomyces cerevisiae [5]; [6]): 0.0319 ± 0.015; protein stability index (Saccharomyces cerevisiae [5]; [7]): 0.028 ± 0.0046; protein stability index (Saccharomyces cerevisiae [5]; [8]): 0.0277 ± 0.0056; protein stability index (Saccharomyces cerevisiae [5]; [9]): 0.0456 ± 0.0096; protein stability index (Saccharomyces cerevisiae [5]; [10]): 0.0223 ± 0.0051; protein stability index (Saccharomyces cerevisiae [5]; [11]): 0.0185 ± 0.0067; protein stability index (Saccharomyces cerevisiae [5]; [12]): 0.0515 ± 0.034
20 | CLVSLQILLFFR | 0.164 | 0.264 | 

Row | Sequence | protein stability index (Saccharomyces cerevisiae [1]) | protein stability index (Saccharomyces cerevisiae [2]) | other results
21 | AITLPMCPLLLL | 0.558 | 0.625 | 
22 | GLYMCSVGCWFRK | 0.435 | 0.648 | 
23 | RVTRLDRIYFRI | 0.243 | 0.566 | 
24 | CLVSLPILLFFP | 0.495 | 0.588 | 
25 | GLYMCSVRCWFR | 0.382 | 0.442 | 
26 | RVTRLDAIYFSI | 0.629 | 0.713 | 
27 | RSLVVLLPLYFR | 0.257 | 0.634 | 
28 | RVTRLDAIYFRIT | 0.16 | 0.243 | 
29 | RSLRVLLPLDFR | 0.666 | 0.723 | 
30 | RVTRLDAIYFRIS | 0.206 | 0.271 | 
31 | CLVSLPILLYFR | 0.0564 | 0.597 | 
32 | RSLRVLLPLYLR | 0.29 | 0.671 | 
33 | AITLPMCPLLHR | 0.628 | 0.716 | 
34 | CVTRLDAIYFRI | 0.194 | 0.71 | 
35 | AIMLPMCPLLLR | 0.258 | 0.612 | 
36 | RSLRVLLPTYFR | 0.569 | 0.664 | 
37 | QVTRLDAIYFRI | 0.346 | 0.693 | 
38 | CLVSLPILQFFR | 0.623 | 0.66 | 
39 | RVTRLDAIFFRI | 0.364 | 0.712 | 
40 | FSMRWTFRYWVN | 0.0664 and 0.0463 |  | protein stability index (Saccharomyces cerevisiae [3]): 0.528 and 0.476; protein stability index (Saccharomyces cerevisiae [4]): 0.112 ± 0.021; protein stability index (Saccharomyces cerevisiae [5]; [6]): 0.301 ± 0.016; protein stability index (Saccharomyces cerevisiae [5]; [7]): 0.545 ± 0.03; protein stability index (Saccharomyces cerevisiae [5]; [8]): 0.531 ± 0.025; protein stability index (Saccharomyces cerevisiae [5]; [9]): 0.573 ± 0.011; protein stability index (Saccharomyces cerevisiae [5]; [10]): 0.0438 ± 0.012; protein stability index (Saccharomyces cerevisiae [5]; [11]): 0.0542 ± 0.0043; protein stability index (Saccharomyces cerevisiae [5]; [12]): 0.0931 ± 0.022
